Experimental findings from PMC4251995 are described below.

The target of assay [1] is Phosphorylated DesR wild type, full-length (Bacillus subtilis) (UniProt O34723). Description: SAXS.
For assay [2] the target is unchanged. Description: SEC. On the technique in general: In gel filtration, larger molecules generally elute earlier.

In the case of “Phosphorylated DesR wild type, full-length (from UniProt O34723 1-199) (natural protein)”, the stoichiometry N in assay [1] and in assay [2] was 2 throughout.

The stoichiometry N is a count of units in the complex or per binding partner.
